Article PMC2949298

Biological target: 21c Fab (human)
Assay: SPR

**Q.** How did the Kd turn out when “CAP210_(V1V2) (core CAP210 gp120 containing the V1V2 loop) with sCD4 (complex)” was run?
**A.** 92 nM
